The series in a line: protein stability index of a GFP-peptide fusion (GPS, HEK-293T) (PSI 1-6); higher = more stable.
Where [1] appears, read: treatment: DMSO, c terminus: a fixed tail appended.
Where [2] appears, read: treatment: MLN4924 1 uM, 8 h, c terminus: a fixed tail appended.

± gives the standard deviation.

We go through 72 sequences from the supplement of paper PMC10567573.
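Further: 24-mer peptide tiles fused after GFP, lentivirally expressed, FACS-sorted into six equal bins by GFP/DsRed ratio, decoded by Illumina sequencing, PSI is the read-weighted mean bin number.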

For the sequence KYNHAACFGLQPGCLLPDGSRMMA [NLN], the protein stability index was found to be 2.59 ± 0.27 under setting [1] and 2.55 ± 0.33 under setting [2].
In the same order, the values of KYRSYEEFKADAQLLLHNTVIFYG [ZMYND11] are 2 ± 0.46 and 2.07 ± 0.33.
In the same order, the values of LAAVTPHDFIEHILRKLPQQREKL [CCND2] are 2.53 ± 0.17 and 2.74 ± 0.23.
On to LAFPLKHPDSWRAYPFYWAWLPQA [PI4K2A], for which the protein stability index by setting is: under setting [1], 2.42 ± 0.65; under setting [2], 2.48 ± 0.84.
As to LAICRPLTYSTRMSQTVQRMLVAA [OR3A1], the protein stability index under setting [1] came out at 2.49 ± 0.17 and the protein stability index under setting [2] is 2.54 ± 0.14.
The corresponding values for LAYLPFKLEKSIDSYYRLVIHRAL [PCDHGA10] are 2.25 ± 0.62 and 2.23 ± 0.81.
The corresponding values for LCEPDPVHFSEAIEKFIREPSLKA [ALG2] are 3.81 ± 0.19 and 3.91 ± 0.19.
The corresponding values for LCHCGKAFSHKSMRDRHVNMHLNL [ZBTB22] are 2.21 ± 0.45 and 2.32 ± 0.14.
On to LCIHTGRELRCKVFPIKHYQDKIR [TRIB1], for which the protein stability index reads like this: under setting [1], 2.27 ± 0.52; under setting [2], 2.18 ± 0.18.
For LCSVGASKAVFLWNMDKYTMIRKL [WSB1], the protein stability index under setting [1] stood at 2.34 ± 0.4 and the protein stability index under setting [2] amounted to 2.17 ± 0.31.
The corresponding values for LDDIIRHDFFLQGFTPDRLSSSCC [PLK2] are 2.48 ± 0.043 and 2.64 ± 0.3.
The corresponding values for LDFTHPKARDWFQGHLRRLRSRYS [MYORG] are 2.79 ± 0.39 and 2.97 ± 0.074.
In the same order, the values of LDPWFAGSSNVGINRWRFLLQCLE [CRY1] are 2.5 ± 0.36 and 2.54 ± 0.23.
Sequence LDSRSTDRVLQWERIDCQGIPPSS [KLHDC2] came in with a protein stability index under setting [1] of 4.09 ± 0.29 and a protein stability index under setting [2] of 3.98 ± 0.24.
In the same order, the values of LEDTCKTIEECCRKQKQELCEKFD [TRIM55] are 4.86 ± 0.094 and 4.74 ± 0.25.
The corresponding values for LEEAKQPKNDNVVIPECAHGGLYK [SMOC2] are 5.31 ± 0.14 and 5.146 ± 0.035.
In the same order, the values of LEEEEEEEDLVLTCEDDEDEELGG [ZBTB22] are 5.57 ± 0.2 and 5.56 ± 0.18.
For LEGAQAPLAVEEDASSSTSTSSSF [MAGEA10], the protein stability index by setting is: under setting [1], 5.66 ± 0.14; under setting [2], 5.55 ± 0.2.
LEKEEEKDLVMYSKCQRLFRSPSM [CDC25B] gave a protein stability index under setting [1] of 3.69 ± 0.39 and a protein stability index under setting [2] of 3.57 ± 0.18.
On to LENELDLKLVSFSKLCTSYSHSST [GOSR1], for which the protein stability index under setting [1] is 2.98 ± 0.13 and the protein stability index under setting [2] was 2.93 ± 0.16.
The corresponding values for LENRIQREIALAKKHGTQNKRAAL [CHMP4C] are 4.09 ± 0.26 and 4.04 ± 0.25.
The corresponding values for LEQRRQQASEREAPSIEQRLQEVR [FCHSD1] are 5.37 ± 0.32 and 5.26 ± 0.12.
In the same order, the values of LFKAHFRGEVLPEEITEESLEESV [INTS3] are 4.9 ± 0.091 and 4.962 ± 0.037.
With LFNILAKFNGITEKEYKTYKENFL [USP39], the protein stability index reads like this: under setting [1], 2.16 ± 0.43; under setting [2], 2.5 ± 0.25.
The corresponding values for LFSLKESPEKFQIEANFPRRVLPC [FAF2] are 2.61 ± 0.3 and 2.84 ± 0.24.
The corresponding values for LGKITFIRNSRPLVKKVEEDEAGG [UFD1] are 3.99 ± 0.34 and 3.94 ± 0.25.
In the same order, the values of LGLAGRCLTLTPRPATEAELLTCH [HDAC6] are 2.86 ± 0.26 and 2.7 ± 0.4.
LGLVARQEDSGLRDHSVRVLISNH [AUP1]: the protein stability index is, setting by setting: under setting [1], 3 ± 0.15; under setting [2], 3.01 ± 0.36.
On to LGPGALHFDLRDDDDAEEEGPKRE [TCF25], for which the protein stability index is 5.17 ± 0.29 under setting [1] and 5.54 ± 0.13 under setting [2].
The corresponding values for LGVGLLTFASLETVGIYFGLVYRI [TMEM40] are 3.17 ± 0.25 and 3.29 ± 0.22.
In the same order, the values of LHQTVERIHVGKKYGDIPRGIFVV [LSM1] are 2.76 ± 0.59 and 2.59 ± 0.63.
In the same order, the values of LILFAWGTLLFYIGGHLVRDNDHP [FUT8] are 2.95 ± 0.19 and 3.36 ± 0.47.
On to LIQDSPDSSTSPKGKQPTSAENSV [NANOGP8], for which the protein stability index was 5.23 ± 0.11 under setting [1] and 5.17 ± 0.17 under setting [2].
In the same order, the values of LIVGAPIWFRVPYSIISLLLKDKV [PTPN9] are 2.59 ± 0.37 and 2.75 ± 0.85.
The corresponding values for LKGAFPARLKKVLIVGAPIWFRVP [PTPN9] are 2.96 ± 0.7 and 2.84 ± 0.5.
As to LKGTLVSTLKEVKPTVFIGVPQIW [ACSBG2], the protein stability index by setting is: under setting [1], 2.65 ± 0.2; under setting [2], 3.5 ± 0.61.
For the sequence LKHWRRAMELRHQGGEYLPKPEPP [FEM1A], the protein stability index reads like this: under setting [1], 3.08 ± 0.53; under setting [2], 3.16 ± 0.41.
In the case of LLARPGTGEHREFKLDKKYQRPQD [FBF1], the protein stability index is 3.95 ± 0.41 under setting [1] and 4.16 ± 0.3 under setting [2].
In the same order, the values of LLDGLARRVGILGEELADVGGVLR [SCARA5] are 2.64 ± 0.2 and 2.72 ± 0.4.
The corresponding values for LLEGTPSSASEGDEDLRRQMQDDE [PALM] are 5.45 ± 0.25 and 5.49 ± 0.28.
The corresponding values for LLGFNLTFVFLASLLVLIEPVAAG [CLCN6] are 3.45 ± 0.23 and 3.14 ± 0.36.
As for LLGLKAFLGLFFIVRFLESNWFVW [FADS1], the protein stability index runs as follows: under setting [1], 2.9 ± 0.47; under setting [2], 2.31 ± 0.43.
The corresponding values for LLLLDLLALYTPVGAAGSARQELL [ANKRD9] are 2.89 ± 0.38 and 2.88 ± 0.27.
In the same order, the values of LLSLNSLLPESGIVADIELENVLD [TFE3] are 3.3 ± 0.49 and 3.3 ± 0.19.
In the same order, the values of LLSSVHVLDLEARGYIKPHVDSIK [ALKBH7] are 2.97 ± 0.22 and 3.19 ± 0.33.
Consider LLVLCEDHRGRMVKHQCCPGCGYF [EHMT1], for which the protein stability index is, setting by setting: under setting [1], 2.36 ± 0.087; under setting [2], 2.27 ± 0.36.
In the same order, the values of LMRHMATHSPQKSHQCAHCEKTFN [PLAGL1] are 3.24 ± 0.3 and 3.2 ± 0.28.
The corresponding values for LNAEAGHLDPGFLASDKTSAGNAP [C18orf25] are 5.07 ± 0.14 and 4.98 ± 0.14.
As for LNGASVLPHKSIGESVPEPRIIM [GMPPB], the protein stability index reads like this: (treatment: DMSO, c terminus: native) 3.65 ± 0.17; (treatment: MLN4924 1 uM, 8 h, c terminus: native) 3.71 ± 0.14.
On to LNGENSDIKICALGEEWSLHKIYL [GMCL1], for which the protein stability index stood at 2.14 ± 0.32 under setting [1] and 1.94 ± 0.41 under setting [2].
In the same order, the values of LNRALSNLSSRWKNWWVRGILTLA [CDS2] are 3.17 ± 0.31 and 3.1 ± 0.49.
The corresponding values for LPCSSYIDSYDPSTGEVYCRVPNS [ALDH8A1] are 2.65 ± 0.22 and 2.88 ± 0.24.
The corresponding values for LPILTWPVLQSRTGLVYDQNMMNH [HDAC6] are 2.25 ± 0.23 and 2.3 ± 0.33.
For LPIVAIENILSFMSYDEISQLRLV [FBXO28], the protein stability index turned out to be 2.94 ± 0.5 under setting [1] and 2.81 ± 0.43 under setting [2].
In the same order, the values of LPPEKGREVAKELGLPYYETSVFD [RHOBTB1] are 3.65 ± 0.18 and 3.8 ± 0.24.
On to LPQTPHLEEDLKEVLRSEAGIELI [MYBL2], for which the protein stability index by setting is: under setting [1], 4.2 ± 0.44; under setting [2], 4.37 ± 0.17.
Consider LPRRDFQRQVWLLFEYPESSGPAR [KCNA3], for which the protein stability index was 2.32 ± 0.26 under setting [1] and 2.71 ± 0.58 under setting [2].
In the same order, the values of LPVGTQLLTVTATDRDEGANGEVT [PCDHGA10] are 5.32 ± 0.37 and 5.4 ± 0.23.
The corresponding values for LQAPVPPDSVPSLQNMGLLLDKLA [PBXIP1] are 3.11 ± 0.44 and 2.86 ± 0.46.
The corresponding values for LQDVRVNQSRCEMKTFVSPEAISP [TRIM15] are 4.01 ± 0.17 and 4.09 ± 0.29.
For LQEKSQCALEEYVRSQYPNQPTRF [NR2F2], the protein stability index by setting is: under setting [1], 3.16 ± 0.25; under setting [2], 3.24 ± 0.24.
The corresponding values for LQEPGVFSPTPPQQFQPAGTDQVC [FCHSD1] are 4.25 ± 0.16 and 4.45 ± 0.27.
In the same order, the values of LQEQHLSSPQGVQLDIASQSLDQE [BCL2L13] are 5.38 ± 0.28 and 5.56 ± 0.21.
The corresponding values for LQEVLSSDENGGTYVSPPGNEEEE [DDIT3] are 5.63 ± 0.27 and 5.42 ± 0.3.
As for LQGSLFGLAGLLPASYTAPIMSGQ [SLC29A1], the protein stability index runs as follows: under setting [1], 2.44 ± 0.28; under setting [2], 2.27 ± 0.3.
In the same order, the values of LQKLLSGRSREELDELTGEVAGGG [FEM1A] are 4.64 ± 0.19 and 4.71 ± 0.2.
The corresponding values for LQLRYSLRILIGDPPHHDHHDEFC [BEX5] are 2.74 ± 0.54 and 2.48 ± 0.45.
In the same order, the values of LQMEMKEDDVSFLMKHKSRKRRLF [TRIM35] are 3.35 ± 0.35 and 3.54 ± 0.16.
On to LQPEQQLNIYKTLKTHLIEKGILQ [CDS1], for which the protein stability index was determined as 2.42 ± 0.14 under setting [1] and 2.58 ± 0.4 under setting [2].
In the same order, the values of LQTLLYFLSDVTAAVKENQMTPTN [DLC1] are 2.04 ± 0.52 and 2.12 ± 0.83.
In the same order, the values of LRAIDFGTDEEEEEFIEEEDQEEE [TRIM63] are 5.63 ± 0.15 and 5.65 ± 0.13.
In the same order, the values of LRAQVPFEQILSLPELKANPFKER [CIB1] are 3.17 ± 0.29 and 3.1 ± 0.42.
